From patent publication US20240270821A1, “GIP/GLP1/GCG TRI-RECEPTOR AGONISTS AND USES THEREOF” (priority 2023, published 2024) come the findings set out here.

First the molecules themselves.
T1: human GIP receptor (human) (UniProt P48546)
T1 sequence (looked up): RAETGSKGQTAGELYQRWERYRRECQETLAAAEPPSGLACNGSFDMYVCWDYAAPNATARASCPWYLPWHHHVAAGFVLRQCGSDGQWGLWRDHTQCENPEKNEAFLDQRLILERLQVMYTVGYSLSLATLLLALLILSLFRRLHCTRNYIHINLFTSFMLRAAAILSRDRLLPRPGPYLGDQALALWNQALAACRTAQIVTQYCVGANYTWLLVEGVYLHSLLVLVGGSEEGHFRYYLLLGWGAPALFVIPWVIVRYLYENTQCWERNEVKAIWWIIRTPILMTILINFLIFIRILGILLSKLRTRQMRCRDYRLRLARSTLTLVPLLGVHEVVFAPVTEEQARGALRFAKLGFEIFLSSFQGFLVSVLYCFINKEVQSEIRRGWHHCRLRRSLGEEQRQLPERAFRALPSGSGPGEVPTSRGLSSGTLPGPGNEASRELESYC

B1: Example 1072 (peptide)
chain: YXQGTFTSDXSQXLDXKAQXAFIQXLIEGGPSSGAPPPSGSEE
modifications: Aib, 4Pal, αMeL, Orn, Me4Pal, αMeY; acylated Lys; C-terminal amide; synthetic construct; SITE 2: note = 2-Aminoisobutyric Acid; SITE 10: note = 3-(4-Pyridyl)-L-alanine; SITE 13: note = alpha-methyl-leucine; SITE 16: note = L-ornithine; SITE 17: note = Lysine is chemically modified through conjugation of the epsilon-amino group of the Lysine side chain with D-Glutami
B2: Example 1074 (peptide)
chain: B1 chain with Q24E, E28A
modifications: non-natural residues; C18 diacid-γ-Glu acyl on Lys; C-terminal amide; synthetic construct; SITE 2: note = 2-Aminoisobutyric Acid; SITE 10: note = 3-(4-Pyridyl)-L-alanine; SITE 13: note = alpha-methyl-leucine; SITE 16: note = L-ornithine; SITE 17: note = Lysine is chemically modified through conjugation of the epsilon-amino group of the Lysine side chain with D-Glutami
B3: Example 103 (peptide)
chain: YXQGTFTSDFSXXLDKKAQXAFIEWLLAGGPSSGEPPPSGE
modifications: synthetic construct; SITE 2: note = 2-Aminoisobutyric Acid; SITE 12: note = L-ornithine; SITE 13: note = alpha-methyl-leucine; SITE 17: note = Lysine is chemically modified through conjugation of the epsilon-amino group of the Lysine side chain with (2-[2-(2-Amino-ethoxy)-ethoxy]-acetyl)-(gamma-Glu)
B4: Example 1071 (peptide)
chain: YXQGTFTSDXSQXLDXKAQXAFIEXLIEGGPSSGAPPPSGSEEE
modifications: acylated Lys e-γGlu-C18 diacid; non-natural residues; C-terminal amide; synthetic construct; SITE 2: note = 2-Aminoisobutyric Acid; SITE 10: note = 3-(4-Pyridyl)-L-alanine; SITE 13: note = alpha-methyl-leucine; SITE 16: note = L-ornithine; SITE 17: note = Lysine is chemically modified through conjugation of the epsilon-amino group of the Lysine side chain with D-Glutami
B5: Example 1077 (peptide)
chain: B4 chain with E24Q
modifications: Glu-γGlu-C18 diacid on Lys; non-natural residues; amide; synthetic construct; SITE 2: note = 2-Aminoisobutyric Acid; SITE 10: note = 3-(4-Pyridyl)-L-alanine; SITE 13: note = alpha-methyl-leucine; SITE 16: note = L-ornithine; SITE 17: note = Lysine is chemically modified through conjugation of the epsilon-amino group of the Lysine side chain with (Glu)-(ga)
B6: Example 1073 (peptide)
chain: B4 chain with E24Q
modifications: non-natural residues, acylated Lys (γGlu-C18 diacid), C-terminal amide; synthetic construct; SITE 2: note = 2-Aminoisobutyric Acid; SITE 10: note = 3-(4-Pyridyl)-L-alanine; SITE 13: note = alpha-methyl-leucine; SITE 16: note = L-ornithine; SITE 17: note = Lysine is chemically modified through conjugation of the epsilon-amino group of the Lysine side chain with D-Glutami
B7: Example 1082 (peptide)
chain: B4 chain with I27L, E28A
modifications: Lys acylated γGlu-C18 diacid; non-natural residues; C-amide; synthetic construct; SITE 2: note = 2-Aminoisobutyric Acid; SITE 10: note = 3-(4-Pyridyl)-L-alanine; SITE 13: note = alpha-methyl-leucine; SITE 16: note = L-ornithine; SITE 17: note = Lysine is chemically modified through conjugation of the epsilon-amino group of the Lysine side chain with D-Glutami
B8: Example 1081 (peptide)
chain: B4 chain with A21Q, E28A
modifications: Aib, 4Pal, Orn, Me4Pal, alpha-methyl-Tyr, lipidated Lys, amide; synthetic construct; SITE 2: note = 2-Aminoisobutyric Acid; SITE 10: note = 3-(4-Pyridyl)-L-alanine; SITE 13: note = alpha-methyl-leucine; SITE 16: note = L-ornithine; SITE 17: note = Lysine is chemically modified through conjugation of the epsilon-amino group of the Lysine side chain with D-Glutami
B9: Example 1076 (peptide)
chain: B4 chain with E24Q
modifications: non-natural residues (Aib, 4Pal, Orn, Me4Pal, αMeY); lipidated K; amide; synthetic construct; SITE 2: note = 2-Aminoisobutyric Acid; SITE 10: note = 3-(4-Pyridyl)-L-alanine; SITE 13: note = alpha-methyl-leucine; SITE 16: note = L-ornithine; SITE 17: note = Lysine is chemically modified through conjugation of the epsilon-amino group of the Lysine side chain with D-Glutami

Changes are numbered by the printed parent chain.

Sequence of hGLP-1R (P43220 24-463): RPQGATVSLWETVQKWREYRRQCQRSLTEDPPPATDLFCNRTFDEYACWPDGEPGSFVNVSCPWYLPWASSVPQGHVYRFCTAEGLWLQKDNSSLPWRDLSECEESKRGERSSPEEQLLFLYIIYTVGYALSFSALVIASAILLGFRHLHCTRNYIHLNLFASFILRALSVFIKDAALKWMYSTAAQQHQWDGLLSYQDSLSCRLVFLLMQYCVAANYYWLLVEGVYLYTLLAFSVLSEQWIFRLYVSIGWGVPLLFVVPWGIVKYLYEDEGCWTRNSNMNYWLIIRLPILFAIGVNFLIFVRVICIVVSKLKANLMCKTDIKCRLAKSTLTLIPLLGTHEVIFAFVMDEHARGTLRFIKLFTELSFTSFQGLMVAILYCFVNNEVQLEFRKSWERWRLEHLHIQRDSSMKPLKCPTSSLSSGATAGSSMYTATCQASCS

One experiment has as its target hGLP-1R (Homo sapiens, UniProt P43220). The experiment can be described thus: cell-based or functional assay.
Regarding B1, the Relative cAMP EC50 came to 0.889 nM and the cAMP Rel EC50 (1% HSA) was 95.1 nM.
Take B2: the Relative cAMP EC50 came to 0.794 nM and the cAMP Rel EC50 (1% HSA) came to 101 nM.
Regarding B3, the Relative cAMP EC50 is 3.27 nM and the cAMP Rel EC50, nM (in the presence of 1% HSA) stood at 482 nM.
In turn, B4 came in with a Relative cAMP EC50 of 2.06 nM and a cAMP Rel EC50 (1% HSA) of 425 nM.
As to B5, the Relative cAMP EC50 came out at 1.48 nM and the cAMP Rel EC50 (1% HSA) was 408 nM.
With B6, the Relative cAMP EC50 was 1.09 nM and the cAMP Rel EC50 (1% HSA) was determined as 114 nM.
As for B7, the Relative cAMP EC50 was 4.13 nM and the cAMP Rel EC50 (1% HSA) came out at 677 nM.
For B8, in that order: 1.29 nM and 151 nM.
In the case of B9, the Relative cAMP EC50 came out at 1.47 nM and the cAMP Rel EC50 (1% HSA) was 187 nM.

In the next experiment the target is human glucagon receptor (human) (UniProt P47871). The experiment can be described thus: cell-based or functional assay.
Sequence of human glucagon receptor (human) (P47871 26-477): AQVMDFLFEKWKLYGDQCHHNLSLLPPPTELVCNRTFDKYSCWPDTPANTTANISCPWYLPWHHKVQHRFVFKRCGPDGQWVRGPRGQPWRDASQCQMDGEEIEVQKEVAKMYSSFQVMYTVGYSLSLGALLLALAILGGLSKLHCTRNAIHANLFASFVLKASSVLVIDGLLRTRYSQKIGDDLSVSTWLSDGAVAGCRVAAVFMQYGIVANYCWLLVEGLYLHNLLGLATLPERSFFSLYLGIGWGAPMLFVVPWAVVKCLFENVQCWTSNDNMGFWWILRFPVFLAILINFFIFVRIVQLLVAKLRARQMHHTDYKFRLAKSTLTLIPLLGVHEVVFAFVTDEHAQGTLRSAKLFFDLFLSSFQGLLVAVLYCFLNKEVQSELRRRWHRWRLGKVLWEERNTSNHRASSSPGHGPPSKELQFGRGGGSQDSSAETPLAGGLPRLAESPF
On to B1, for which the Relative cAMP EC50 was 10.5 nM and the cAMP Rel EC50 (1% HSA) was found to be 914 nM.
The molecule B2 displayed a Relative cAMP EC50 of 22.8 nM and a cAMP Rel EC50 (1% HSA) of 1990 nM.
In the case of B3, the Relative cAMP EC50 is 10.5 nM and the cAMP Rel EC50, nM (in the presence of 1% HSA) is 2590 nM.
With B4, the Relative cAMP EC50 came out at 23.5 nM and the cAMP Rel EC50 (1% HSA) is 2990 nM.
For B5, in that order: 18.8 nM and 3160 nM.
In turn, B6 yielded a Relative cAMP EC50 of 12.3 nM and a cAMP Rel EC50 (1% HSA) of 1490 nM.
B7 gave a Relative cAMP EC50 of 12.3 nM and a cAMP Rel EC50 (1% HSA) of 1530 nM.
For B8, in that order: 19.7 nM and 2130 nM.
For B9, in that order: 59 nM and 1650 nM.

Another experiment concerns the target T1, human GIP receptor (human). In words: cell-based or functional assay.
Regarding B1, the Relative cAMP EC50 was determined as 0.157 nM and the cAMP Rel EC50 (1% HSA) worked out at 9.94 nM.
For B2, in that order: 0.0745 nM and 8.49 nM.
On to B3, for which the Relative cAMP EC50 amounted to 0.2 nM and the cAMP Rel EC50, nM (in the presence of 1% HSA) is 35.1 nM.
Molecule B4 returned a Relative cAMP EC50 of 0.261 nM and a cAMP Rel EC50 (1% HSA) of 40.2 nM.
For B5, in that order: 0.23 nM and 27.8 nM.
For B6, in that order: 0.201 nM and 15.7 nM.
For B7, in that order: 0.099 nM and 12.3 nM.
Turning to B8, the Relative cAMP EC50 is 0.105 nM and the cAMP Rel EC50 (1% HSA) worked out at 8.44 nM.
For B9, in that order: 0.174 nM and 20.2 nM.
